# Test results published in IntAct's records for PubMed 23064147.
# B1: Spindle assembly abnormal protein 6 (Caenorhabditis elegans), O62479 (parent)
# chain: MTSKIALFDQTLIASLLQPLSLNQPDFKAYKTKVKLKISEQRNETSGEKELKFEISRSDDFEFLFSETLNNEKYQILARDHDLTVDFDAFPKVIIQHLLCKNIVKNLEEDGEVDARKKAGYHSIADPGKPTEINIILDAEKNFCSFELFSKTPISKGKIFSIKLHAVRGDHLISHLLKICSSQAVKLSTFYKSADELASLRQKCGDLEKQVEKLSGVKEEFEEMSEKFKELEDEVELVKEERENIRLLVEDKEDEVADLKQDTESLQKQLEENQEELEIVGNMLREEQGKVDQLQKRNVAHQKEIGKLRAELGTAQRNLEKADQLLKRNSQQQNQQSLDMRKLGELEADLKEKDSMVESLTETIGILRKELENEKLKAAENMDSFEKLSMENENLKEKIAHYRAQRFSPAPSGLPGLQTGLTNRLTPSFKPVLGPHTPYGANLNSRTPFRDNTTLNFQNSTIATPHAFRFNSQLIADETTGSSVTNTPPAQR
# partner: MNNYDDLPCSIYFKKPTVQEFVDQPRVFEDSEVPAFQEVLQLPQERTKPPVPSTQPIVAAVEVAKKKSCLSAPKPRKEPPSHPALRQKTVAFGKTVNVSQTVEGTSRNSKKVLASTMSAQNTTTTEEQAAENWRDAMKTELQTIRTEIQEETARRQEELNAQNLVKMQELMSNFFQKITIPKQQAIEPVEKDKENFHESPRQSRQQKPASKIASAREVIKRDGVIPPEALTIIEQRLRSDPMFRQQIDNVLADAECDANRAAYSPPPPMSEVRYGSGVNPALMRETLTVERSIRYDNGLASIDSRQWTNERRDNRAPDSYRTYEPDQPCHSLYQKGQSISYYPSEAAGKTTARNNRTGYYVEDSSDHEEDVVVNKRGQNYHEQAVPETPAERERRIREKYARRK
# Variants of: B1
# Details: with sas5_caeel sas-5, Q20010
row,Variant,effect of a mutation on the interaction
1,MTSKIALFDQTLIASLLQPLSLNQPDFKAYKTKVKLKISEQRNETSGEKELKFEISRSDDFEFLFSETLNNEKYQILARDHDLTVDFDAFPKVIIQHLLCKNIVKNLEEDGEVDARKKAGYHSIADPGKPTEINIILDAEKNFCSFELFSKTPISKGKIFSIKLHAVRGDHLISHLLKICSSQAVKLSTFYKSADELASLRQKCGDLEKQVEKLSGVKEEFEEMSEKFKELEDEVELVKEERENIRLLVEDKEDEVADLKQDTESLQKQLEENQAELEIVGNMLREEQGKVDQLQKRNVAHQKEIGKLRAELGTAQRNLEKADQLLKRNSQQQNQQSLDMRKLGELEADLKEKDSMVESLTETIGILRKELENEKLKAAENMDSFEKLSMENENLKEKIAHYRAQRFSPAPSGLPGLQTGLTNRLTPSFKPVLGPHTPYGANLNSRTPFRDNTTLNFQNSTIATPHAFRFNSQLIADETTGSSVTNTPPAQR [E275A],decreasing interaction
2,MTSKIALFDQTLIASLLQPLSLNQPDFKAYKTKVKLKISEQRNETSGEKELKFEISRSDDFEFLFSETLNNEKYQILARDHDLTVDFDAFPKVIIQHLLCKNIVKNLEEDGEVDARKKAGYHSIADPGKPTEINIILDAEKNFCSFELFSKTPISKGKIFSIKLHAVRGDHLISHLLKICSSQAVKLSTFYKSADELASLRQKCGDLEKQVEKLSGVKEEFEEMSEKFKELEDEVELVKEERENIRLLVEDKEDEVADLKQDTESLQKQLEENQEELAIVGNMLREEQGKVDQLQKRNVAHQKEIGKLRAELGTAQRNLEKADQLLKRNSQQQNQQSLDMRKLGELEADLKEKDSMVESLTETIGILRKELENEKLKAAENMDSFEKLSMENENLKEKIAHYRAQRFSPAPSGLPGLQTGLTNRLTPSFKPVLGPHTPYGANLNSRTPFRDNTTLNFQNSTIATPHAFRFNSQLIADETTGSSVTNTPPAQR [E278A],decreasing interaction

# Variants of: B1
# Details: with sas5_caeel sas-5, Q20010
# Remark: another data set of the same source
row,Variant,effect of a mutation on the interaction
1,MTSKIALFDQTLIASLLQPLSLNQPDFKAYKTKVKLKISEQRNETSGEKELKFEISRSDDFEFLFSETLNNEKYQILARDHDLTVDFDAFPKVIIQHLLCKNIVKNLEEDGEVDARKKAGYHSIADPGKPTEINIILDAEKNFCSFELFSKTPISKGKIFSIKLHAVRGDHLISHLLKICSSQAVKLSTFYKSADELASLRQKCGDLEKQVEKLSGVKEEFEEMSEKFKELEDEVELVKEERENIRLLVEDKEDEVADLKQDTESLQKQLEENQAELEIVGNMLREEQGKVDQLQKRNVAHQKEIGKLRAELGTAQRNLEKADQLLKRNSQQQNQQSLDMRKLGELEADLKEKDSMVESLTETIGILRKELENEKLKAAENMDSFEKLSMENENLKEKIAHYRAQRFSPAPSGLPGLQTGLTNRLTPSFKPVLGPHTPYGANLNSRTPFRDNTTLNFQNSTIATPHAFRFNSQLIADETTGSSVTNTPPAQR [E275A],disrupting interaction
2,MTSKIALFDQTLIASLLQPLSLNQPDFKAYKTKVKLKISEQRNETSGEKELKFEISRSDDFEFLFSETLNNEKYQILARDHDLTVDFDAFPKVIIQHLLCKNIVKNLEEDGEVDARKKAGYHSIADPGKPTEINIILDAEKNFCSFELFSKTPISKGKIFSIKLHAVRGDHLISHLLKICSSQAVKLSTFYKSADELASLRQKCGDLEKQVEKLSGVKEEFEEMSEKFKELEDEVELVKEERENIRLLVEDKEDEVADLKQDTESLQKQLEENQEELAIVGNMLREEQGKVDQLQKRNVAHQKEIGKLRAELGTAQRNLEKADQLLKRNSQQQNQQSLDMRKLGELEADLKEKDSMVESLTETIGILRKELENEKLKAAENMDSFEKLSMENENLKEKIAHYRAQRFSPAPSGLPGLQTGLTNRLTPSFKPVLGPHTPYGANLNSRTPFRDNTTLNFQNSTIATPHAFRFNSQLIADETTGSSVTNTPPAQR [E278A],disrupting interaction

# Variants of: B1
# Details: with sas5_caeel sas-5, Q20010
# Remark: another data set of the same source
row,Variant,effect of a mutation on the interaction
1,MTSKIALFDQTLIASLLQPLSLNQPDFKAYKTKVKLKISEQRNETSGEKELKFEISRSDDFEFLFSETLNNEKYQILARDHDLTVDFDAFPKVIIQHLLCKNIVKNLEEDGEVDARKKAGYHSIADPGKPTEINIILDAEKNFCSFELFSKTPISKGKIFSIKLHAVRGDHLISHLLKICSSQAVKLSTFYKSADELASLRQKCGDLEKQVEKLSGVKEEFEEMSEKFKELEDEVELVKEERENIRLLVEDKEDEVADLKQDTESLQKQLEENQEELEAVGNMLREEQGKVDQLQKRNVAHQKEIGKLRAELGTAQRNLEKADQLLKRNSQQQNQQSLDMRKLGELEADLKEKDSMVESLTETIGILRKELENEKLKAAENMDSFEKLSMENENLKEKIAHYRAQRFSPAPSGLPGLQTGLTNRLTPSFKPVLGPHTPYGANLNSRTPFRDNTTLNFQNSTIATPHAFRFNSQLIADETTGSSVTNTPPAQR [I279A],decreasing interaction

# Variants of: B1
# Details: with sas5_caeel sas-5, Q20010
# Remark: another data set of the same source
row,Variant,effect of a mutation on the interaction
1,MTSKIALFDQTLIASLLQPLSLNQPDFKAYKTKVKLKISEQRNETSGEKELKFEISRSDDFEFLFSETLNNEKYQILARDHDLTVDFDAFPKVIIQHLLCKNIVKNLEEDGEVDARKKAGYHSIADPGKPTEINIILDAEKNFCSFELFSKTPISKGKIFSIKLHAVRGDHLISHLLKICSSQAVKLSTFYKSADELASLRQKCGDLEKQVEKLSGVKEEFEEMSEKFKELEDEVELVKEERENIRLLVEDKEDEVADLKQDTESLQKQLEENQEELEAVGNMLREEQGKVDQLQKRNVAHQKEIGKLRAELGTAQRNLEKADQLLKRNSQQQNQQSLDMRKLGELEADLKEKDSMVESLTETIGILRKELENEKLKAAENMDSFEKLSMENENLKEKIAHYRAQRFSPAPSGLPGLQTGLTNRLTPSFKPVLGPHTPYGANLNSRTPFRDNTTLNFQNSTIATPHAFRFNSQLIADETTGSSVTNTPPAQR [I279A],disrupting interaction
